Measurements taken from patent US6635751B1, “Isolated nucleic acids encoding activated and suppressive forms of ATF6” (HSP Research Institute, Inc., priority 1998, dated 2003).

Columns and labels:
HeLa cells = assay: Immunoblotting time course of p50ATF6 and GRP78 in treated HeLa cells; type: cell-based, human; conditions: 7 μM A23187 or 300 μM thapsigargin
Procedure: HeLa cells were treated with 2 μg/ml TM, 7 μM A23187 or 300 μM thapsigargin (in the figure, simply referred to as “Tg”) for the indicated period. Alternatively, HeLa cells which were treated separately from the above treated cells were heat-shocked at 43° C. for 1 hour and then recovered at 37° C. for the indicated period. Whole cell extracts were prepared and analyzed by immunoblotting using an anti-B03N antiserum or an antiserum specific to either GRP78 or HSP70.
HeLa cells cultured in a 60-mm dish so as to have 60% confluency were incubated in the presence of 2 μg/ml tunicamycin (TM) for the indicated period. Cells were washed with PBS, scraped with a rubber policeman, and suspended in 100 μl Laemmli's SDS sample buffer. After boiling the suspension for 5 minutes, aliquots corresponding to 1×10^5 cells were subjected to SDS-PAGE (10% gel) and analyzed by immunoblotting using an anti-ATF6 antibody, or an anti-KDEL antibody recognizing GRP78. The positions of p90ATF6 and p50ATF6 are indicated by open and closed arrows, respectively. The asterisks denote non-specific bands in which a sugar chain is not added to p90ATF6. The positions of molecular weight markers (manufactured by Bio-Rad, prestained SDS-PAGE preparations) are also shown.
By lysing 1×10^6 HeLa cells in 60 μl of 1×sample buffer (62.5 mM Tris-HCl (pH 6.8), 2% SDS, 350 mM dithiothreitol and 0.01% bromophenol blue), a whole cell extract was prepared. […] Using an ECL Western blotting detection kit (manufactured by Amersham Pharmacia Biotech), each antigen was detected.
In order to determine whether or not the appearance of p50ATF6 is associated with the intracellular UPR activity, stress-induced p50ATF6 appearance and GRP78 expression were monitored with the passage of time by immunoblotting.
In order to determine whether or not p90ATF6 is directly converted to p50ATF6 by endoplasmic reticulum stress, quantitative changes in p90ATF6, p50ATF6 and the target protein GRP78 in TM-treated HeLa cells were evaluated with the passage of time by immunoblotting using the purified ATF6 antibody.

human GRP78 promoter = assay: Overexpression of CREB-RP mutants with GRP78 promoter luciferase reporter in HeLa cells, ERSE-mediated transcription; type: cell-based; conditions: for ERSE-dependent transcriptional induction by the TM treatment: 2 μg/ml tunicamycin for 16 hours
Text: (§1) In a 96-well plate, the HeLa cells were transiently transformed with a reporter plasmid pGL-G78(−132) for expressing firefly luciferase gene under the control of a human GRP78 promoter together with pcDNA3.1 vector which has no inserts or with ATF6(1-373) expression plasmid or with CREB-RP(1-389) expression plasmid. Relative activity is indicated by the mean±standard deviation (bars), based on four independent experiments (each triplicate determinations).
as §1, with “transformed using” for “transformed with”, “with CREB-RP(308-386)” for “with ATF6(1-373) expression plasmid or with CREB-RP(1-389)”, “plasmid. Transfected cells were treated with (closed bars) or without 2 μg/ml tunicamycin (open bars) for 16 hours before luciferase activities were determined.” for “plasmid.”
In the figure, closed bars and open bars indicate the same as those in FIG. 31.
The CREB-RP(1-389) expression plasmid and a reporter plasmid resulting from ligation of the luciferase gene to downstream of the GRP78 promoter or mutant GRP78 promoter were introduced into the HeLa cells to evaluate the effect of CREB-RP(1-389) overexpression on ERSE-mediated transcriptional activation.
In the same manner as in Example 16, the effect of CREB-RP(308-386) overexpression on ERSE-mediated transcriptional activation was evaluated.
In addition, in the same manner as in Example 16, the effect of overexpression of CREB-RP(81-389) or CREB-RP(151-389) on ERSE-mediated transcriptional activation was evaluated. Here, each of CREB-RP(81-389) and CREB-RP(151-389) lacks transcription-activating domain.

Row | Molecule | appearance of p50ATF6 relative to GRP78 induction (HeLa cells) | ERSE-dependent transcriptional induction by the TM treatment (human GRP78 promoter) | other results
1 | CNc1ccc2oc(C[C@H]3O[C@@]4(CC[C@H]3C)O[C@H]([C@H](C)C(=O)c3ccc[nH]3)[C@H](C)C[C@H]4C)nc2c1C(=O)O [A23187] | p50ATF6 appeared in advance of GRP78 induction |  | 
2 | C/C=C(/C)C(=O)O[C@H]1C(C)=C2[C@H]([C@@H]1OC(=O)CCCCCCC)[C@@](C)(OC(C)=O)C[C@H](OC(=O)CCC)[C@@]1(O)[C@H]2OC(=O)[C@@]1(C)O [thapsigargin] | p50ATF6 appeared in advance of GRP78 induction |  | 
3 | CREB-RP(308-386): CREB-RP amino acids 308th to 386th with N-terminal Met; only basic region and leucine zipper |  | strongly suppressed | 
4 | CREB-RP(1-389): CREB-RP amino acids 1st to 389th, corresponding to p60CREB-RP, activated form (protein) AELMLLSEIADPTRFFTDNLLSPEDWDSTLYSGLDEVAEEQTQLFRCPEQDVPFDGSSLDVGMDVSPSEPPWELLPIFPDLQVKSEPSSPCSSSSLSSESSRLSTEPSSEALGVGEVLHVKTESLAPPLCLLGDDPTSSFETVQINVIPTSDDSSDVQTKIEPVSPCSSVNSEASLLSADSSSQAFIGEEVLEVKTESLSPSGCLLWDVPAPSLGAVQISMGPSLDGSSGKALPTRKPPLQPKPVVLTTVPMPSRAVPPSTTVLLQSLVQPPPVSPVVLIQGAIRVQPEGPAPSLPRPERKSIVPAPMPGNSCPPEVDAKLLKRQQRMIKNRESACQSRRKKKEYLQGLEARLQAVLADNQQLRRENAALRRRLEALLAENSELKLGSGNRKVVCIMVFLLFIAFNFGPVSISEPPSAPISPRMNKGEPQPRRHLLGFSEQEPVQGVEPLQGSSQGPKEPQPSPTDQPSFSNLTAFPGGAKELLLRDLDQLFLSSDCRHFNRTESLRLADELSGWVQRHQRGRRKIPQRAQERQKSQPRKKSPPVKAVPIQPPGPPERDSVGQLQLYRHPDRSQPAFLDAIDRREDTFYVVSFRRGHLLLPAISHNKTSRPKMSLVMPAMAPNETLSGRGAPGDYEEMMQIECEVMDTRVIHIKTSTVPPSLRKQPSPTPGNATGGPLPVSAASQAHQASHQPLYLNHP |  |  | ERSE-mediated transcription from GRP78 promoter on overexpression (human GRP78 promoter; without ER stress, not observed with mutant ERSE): constitutively activated the transcription
5 | CREB-RP(81-389): CREB-RP deletion mutant lacking transcription-activating domain (protein, UniProt Q99941 81-389, looked up, fragment) IFPDLQVKSEPSSPCSSSSLSSESSRLSTEPSSEALGVGEVLHVKTESLAPPLCLLGDDPTSSFETVQINVIPTSDDSSDVQTKIEPVSPCSSVNSEASLLSADSSSQAFIGEEVLEVKTESLSPSGCLLWDVPAPSLGAVQISMGPSLDGSSGKALPTRKPPLQPKPVVLTTVPMPSRAVPPSTTVLLQSLVQPPPVSPVVLIQGAIRVQPEGPAPSLPRPERKSIVPAPMPGNSCPPEVDAKLLKRQQRMIKNRESACQSRRKKKEYLQGLEARLQAVLADNQQLRRENAALRRRLEALLAENSELK |  | strongly suppressed | 
6 | CREB-RP(151-389): CREB-RP deletion mutant lacking transcription-activating domain (protein, UniProt Q99941 151-389, looked up, fragment) VIPTSDDSSDVQTKIEPVSPCSSVNSEASLLSADSSSQAFIGEEVLEVKTESLSPSGCLLWDVPAPSLGAVQISMGPSLDGSSGKALPTRKPPLQPKPVVLTTVPMPSRAVPPSTTVLLQSLVQPPPVSPVVLIQGAIRVQPEGPAPSLPRPERKSIVPAPMPGNSCPPEVDAKLLKRQQRMIKNRESACQSRRKKKEYLQGLEARLQAVLADNQQLRRENAALRRRLEALLAENSELK |  | strongly suppressed | 
